Drawing on patent US20220306751A1 (MYTHIC THERAPEUTICS, published 2022), this text covers binding result and IC50 for 27 molecules.

In general, IC50 refers to the point on the concentration scale where inhibition reaches its midpoint. A lower IC50 goes with greater potency in that assay.

Numbering of substitutions follows the chain as printed.

The target of test [1] is T1, CD123 Protein, His Tag, Acro Biosciences Cat. No. ILA-H52H6 (Homo sapiens (Human), UniProt P26951 19-305).
T1 construct: Bought protein; not shown: His tag
T1 sequence: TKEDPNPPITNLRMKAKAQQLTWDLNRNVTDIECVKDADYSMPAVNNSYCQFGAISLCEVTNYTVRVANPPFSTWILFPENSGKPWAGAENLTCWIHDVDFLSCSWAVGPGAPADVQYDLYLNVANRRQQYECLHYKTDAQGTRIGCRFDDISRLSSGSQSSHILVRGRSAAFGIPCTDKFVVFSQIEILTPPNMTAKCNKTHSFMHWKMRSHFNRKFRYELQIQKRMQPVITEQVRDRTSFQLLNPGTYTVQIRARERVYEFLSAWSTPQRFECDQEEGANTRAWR
Briefly: BLI, IgG on anti-human Fc sensor, pH 7.4 and pH 5.4.

The target of test [2] is T1, CD123 Protein, His Tag, Acro …. Briefly: BLI, IgG on anti-human Fc sensor, 50 nM CD123, pH 7.4 and pH 5.4. The procedure, abridged:
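Single His/Ala heavy-chain CDR variants were expressed in Expi293 and captured from diluted supernatant on anti-human Fc sensors. By BLI, association with 50 nM His-tagged CD123 ran for 120 s and dissociation for 300–600 s, all in PBST pH 7.4. The full cycle was repeated separately in PBST pH 5.4.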

Test [3] deals with T2, CD123 protein (R&D Systems Catalog No. 301-R3-025/CF) (Homo sapiens (Human), UniProt P26951 19-305).
T2 construct: Bought protein
T2 sequence: T1 sequence
Briefly: BLI, IgG on anti-human Fc sensor, pH 7.4 and pH 5.4. On the technique in general: Biolayer interferometry detects binding as a change in optical thickness at a sensor tip.

Test [4] concerns the target T3, cell surface CD123 on EOL-1 cells (CD123+) (human, UniProt P26951 19-378).
T3 construct: EOL-1 cells, DSMZ ACC 386
Briefly: flow cytometry on EOL-1 (CD123+) cells, anti-human IgG Alexa Fluor 488; Example 16 calls the fitted value KD. On the procedure: 100,000 EOL-1 cells (DSMZ ACC 386) were seeded per well in a 96 well deep well plate. IMGN632 and a pH engineered antibody variant were serially diluted at a 1:3 dilution in ice cold FC buffer (phosphate buffered saline (PBS), pH 7.4+2 mM ethylenediaminetetraacetic acid (EDTA)+2% (v/v) HI FBS). The plates were spun at 2,000 RPM for 2 minuets, the supernatant was removed, and 100 μL of diluted antibody was added to each well with final concentration ranging from 60 nM to 1 pM and incubated for 2 hours at 4° C. Post incubation, the cells were spun at 2000 rpm for 2 min and supernatant was discarded. Cells were washed twice with 500 μL of ice-cold FC buffer and resuspended with […]. The cells were then transferred from the deep well plate to 96 well round bottom plate, spun at 2000 rpm for 2 min and incubated with 100 μL of 10 μg/mL Alexa Fluor 488 conjugated goat anti-human IgG secondary antibody (ThermoFisher Scientific, A11013) for 30 min. Post incubation, cells were washed with FC buffer and resuspended in 100 μL of FC buffer to read on a BD Accuri C6 flow cytometer. Binding affinity was measured as a dissociation constant KD by GraphPad Prism assuming Michaelis-Menten binding kinetics.
(A flow cytometer gives signals particle by particle.)

B1: MYT1417 (antibody, V domains shown)
VH: QVQLVQSGAEVKKPGASVKMSCKASGYTHTDYYMKWVKQAPGQGLEWIGDIIPSNGATFYNQKFKGKATLTVDRSISTAYMHLNRLRSDDTAVYYCTRSHLLRASWFAYWGQGTLVTVSS
VL: DFVMTQSPDSLAVSLGERATINCKSSQSLLNSGNQKNYLTWYLQKPGQPPKLLIYWASTRESGVPDRFSGSGSGTDFTLTISSLQAEDVAVYYCQNDYSYPYTFGQGTKLEIK
notes: IgG
As for B1, the binding result in test [1] was “no binding (tested: 50 nM)”.

B2: MYT1424 (antibody, V domains shown)
VH: B1 VH with H29F, D50H
VL: B1 VL
notes: IgG
Take B2: the binding result in test [1] is listed as “no binding (tested: 50 nM)”.

B3: MYT1451 (antibody, V domains shown)
VH: B1 VH with H29F, F107H
VL: B1 VL
notes: IgG
In the case of B3, the binding result in test [2] is reported as “binds”.

B4: MYT1447 (antibody, V domains shown)
VH: B1 VH with H29F, R103H
VL: B1 VL
notes: IgG
Take B4: the binding result in test [1] was “no binding (tested: 50 nM)”.

B5: MYT1425 (antibody, V domains shown)
VH: B1 VH with H29F, I51H
VL: B1 VL
notes: IgG
As for B5, the binding result in test [1] is “no binding (tested: 50 nM)”.

B6: MYT1448 (antibody, V domains shown)
VH: B1 VH with H29F, A104H
VL: B1 VL
notes: IgG
B6: in test [2], the binding result is “binds”.

B7: MYT1427 (antibody, V domains shown)
VH: B1 VH with H29F, P53H
VL: B1 VL
notes: IgG
For B7, in test [1], the binding result was “no binding (tested: 50 nM)”.

B8: MYT1446 (antibody, V domains shown)
VH: B1 VH with H29F, L102H
VL: B1 VL
notes: IgG
B8: in test [2], the binding result is reported as “binds”.

B9: MYT1452 (antibody, V domains shown)
VH: B1 VH with H29F, A108H
VL: B1 VL
notes: IgG
Turning to B9, the binding result in test [2] is “binds”.

B10: MYT1443 (antibody, V domains shown)
VH: B1 VH with H29F, S99H
VL: B1 VL
notes: IgG
As to B10, the binding result in test [1] is reported as “no binding (tested: 50 nM)”.

B11: MYT1437 (antibody, V domains shown)
VH: B1 VH with H29F, K63H
VL: B1 VL
notes: IgG
Consider B11, for which the binding result in test [2] is on record as “binds”.

B12: MYT1441 (antibody, V domains shown)
VH: B1 VH with H29F, T97H
VL: B1 VL
notes: IgG
As for B12, the binding result in test [1] is recorded as “no binding (tested: 50 nM)”.

B13: MYT1445 (antibody, V domains shown)
VH: B1 VH with H29F, L101H
VL: B1 VL
notes: IgG
Regarding B13, the binding result in test [2] was “binds”.

B14: MYT1440 (antibody, V domains shown)
VH: B1 VH with H29F, G66H
VL: B1 VL
notes: IgG
As to B14, the binding result in test [2] is on record as “binds”.

B15: MYT1439 (antibody, V domains shown)
VH: B1 VH with H29F, K65H
VL: B1 VL
notes: IgG
In the case of B15, the binding result in test [2] is given as “binds”.

B16: MYT1436 (antibody, V domains shown)
VH: B1 VH with H29F, Q62H
VL: B1 VL
notes: IgG
For B16, in test [2], the binding result is “binds”.

B17: MYT1453 (antibody, V domains shown)
VH: B1 VH with H29F, Y109H
VL: B1 VL
notes: IgG
Turning to B17, the binding result in test [2] is given as “binds”.

B18: MYT1438 (antibody, V domains shown)
VH: B1 VH with H29F, F64H
VL: B1 VL
notes: IgG
B18: in test [2], the binding result is on record as “binds”.

B19: MYT1450 (antibody, V domains shown)
VH: B1 VH with H29F, W106H
VL: B1 VL
notes: IgG
As to B19, the binding result in test [1] is recorded as “no binding (tested: 50 nM)”.

B20: MYT1444 (antibody, V domains shown)
VH: B1 VH with H29F, H100A
VL: B1 VL
notes: IgG
As to B20, the binding result in test [1] was “no binding (tested: 50 nM)”.

B21: MYT1442 (antibody, V domains shown)
VH: B1 VH with H29F, R98H
VL: B1 VL
notes: IgG
Turning to B21, in test [2], the binding result is reported as “binds”.

B22: MYT1449 (antibody, V domains shown)
VH: B1 VH with H29F, S105H
VL: B1 VL
notes: IgG
As for B22, the binding result in test [2] is “binds”.

B23: MYT5476 (antibody, V domains shown)
VH: EVQLLESGGGLVQPGGSLRLSCAVSDYSITSGYYWNWIRQAPGKKLEWMGYISYDGSNNYNPSLKNGRITISRDTSKNTFYLQMNSLRAEDTAVYYCARGEHFYFDSWGQGTLVTVSS
VL: EIVLTQSPGTLSLSPGERATLSCKSSQSLFFGSTQKNYLAWYQQKPGQAPRLLIYWASTRESGIPDRFSGSGSGTDFTLTISRLEPEDFAVYYCQQYYNYPWTFGQGTKLEIK
notes: IgG
On to B23, for which the binding result in test [3] is recorded as “no binding (tested: 50 nM)”.

B24: MYT5495 (antibody, V domains shown)
VH: B23 VH with H102G
VL: B23 VL with A40H
notes: IgG
For B24, the binding result in test [3] is “no binding (tested: 50 nM)”.

B25: IMGN632 (antibody, V domains shown)
VH: QVQLVQSGAEVKKPGASVKVSCKASGYIFTSSIMHWVRQAPGQGLEWIGYIKPYNDGTKYNEKFKGRATLTSDRSTSTAYMELSSLRSEDTAVYYCAREGGNDYYDTMDYWGQGTLVTVSS
VL: DIQMTQSPSSLSASVGDRVTITCRASQDINSYLSWFQQKPGKAPKTLIYRVNRLVDGVPSRFSGSGSGNDYTLTISSLQPEDFATYYCLQYDAFPYTFGQGTKVEIK
notes: IgG from Expi293 supernatant; also called MYT1251; starting ABPC
For the molecule B25, the IC50 in test [4] stood at 0.034 nM.

B26: MYT2758 (antibody, V domains shown)
VH: B25 VH with H35A, T107H
VL: B25 VL
notes: IgG
Molecule B26 showed an IC50 in test [4] of 0.051 nM.

B27: MYT1281 (antibody, V domains shown)
VH: B25 VH with E99H
VL: B25 VL
notes: IgG
Consider B27, for which, in test [1], the binding result was “no binding (tested: 50 nM)”.
